Like-named read-outs stand apart in the source and are kept apart here.
Columns and labels:
Test in all cases: cell-based or functional assay
[1] = target: T1, recombinant human TFPI (tissue factor pathway inhibitor) (human, UniProt P10646 29-304)
[2] = target: T1, recombinant human TFPI (tissue factor …); remark: listed apart in the source
[3] = target: T1, recombinant human TFPI (tissue factor …); remark: listed apart in the source
[4] = target: T1, recombinant human TFPI (tissue factor …); remark: listed apart in the source
[5] = target: T1, recombinant human TFPI (tissue factor …); remark: listed apart in the source
[6] = target: T1, recombinant human TFPI (tissue factor …); remark: listed apart in the source
[7] = target: T1, recombinant human TFPI (tissue factor …); remark: listed apart in the source

B1: clone T417 (antibody, V domains shown)
VH: EVHLVESGGDLVKPGGSLKLSCAASGFTFSSYAMSWVRQTPDKRLEWVATITTGGSYTYYPDSVKGRFTISRDNAKNTLYLQMSSLKSEDTAMYYCARQDGNFLMDYWGQGTTVTVSS
VL: not shown
notes: also called T417 chimeric antibody
**Q.** How did the “% of Normalized, TF/FVIIa/FX complex assay, Ab 1.56 nM” value [1] turn out when B1 was run?
**A.** The value was 15.2%.

**Q.** What about the “% of Normalized, TF/FVIIa/FX complex assay, Ab 3.13 nM” value [1] of the same binder?
**A.** Its value is 16.8%.

**Q.** And the “% of Normalized, TF/FVIIa/FX complex assay, Ab 6.25 nM” value [1]?
**A.** Its value is 19.5%.

**Q.** What about the “% of Normalized, TF/FVIIa/FX complex assay, Ab 12.5 nM” value [1] of the same binder?
**A.** The value was 26.3%.

**Q.** And the “% of Normalized, TF/FVIIa/FX complex assay, Ab 25 nM” value [1]?
**A.** The value was 92.2%.

**Q.** And the “% of Normalized, TF/FVIIa/FX complex assay, Ab 50 nM” value [1]?
**A.** The value was 95.1%.

**Q.** What about the “% of Normalized, TF/FVIIa/FX complex assay, Ab 100 nM” value [1] of the same binder?
**A.** The value was 99%.

**Q.** And the “A405, TF/FVIIa/FX complex assay, Ab 1.56 nM” value [2]?
**A.** The value was 0.16.

**Q.** And the “A405, TF/FVIIa/FX complex assay, Ab 3.13 nM” value [2]?
**A.** The value was 0.158.

**Q.** What about the “A405, TF/FVIIa/FX complex assay, Ab 6.25 nM” value [2] of the same binder?
**A.** Its value is 0.183.

**Q.** And the “A405, TF/FVIIa/FX complex assay, Ab 12.5 nM” value [2]?
**A.** Its value is 0.253.

**Q.** And the “A405, TF/FVIIa/FX complex assay, Ab 25 nM” value [2]?
**A.** The value was 0.894.

**Q.** And the “A405, TF/FVIIa/FX complex assay, Ab 50 nM” value [2]?
**A.** The value was 0.938.

**Q.** What about the “A405, TF/FVIIa/FX complex assay, Ab 100 nM” value [2] of the same binder?
**A.** The value was 0.931.

**Q.** What about the “% of Normalized, TF/FVIIa/FX complex assay, Ab 1.56 nM” value [3] of the same binder?
**A.** The value was 17.5%.

**Q.** What about the “% of Normalized, TF/FVIIa/FX complex assay, Ab 3.13 nM” value [3] of the same binder?
**A.** The value was 17.2%.

**Q.** What about the “% of Normalized, TF/FVIIa/FX complex assay, Ab 6.25 nM” value [3] of the same binder?
**A.** The value was 20%.

**Q.** What about the “% of Normalized, TF/FVIIa/FX complex assay, Ab 12.5 nM” value [3] of the same binder?
**A.** Its value is 27.7%.

**Q.** And the “% of Normalized, TF/FVIIa/FX complex assay, Ab 25 nM” value [3]?
**A.** Its value is 97.7%.

**Q.** What about the “% of Normalized, TF/FVIIa/FX complex assay, Ab 50 nM” value [3] of the same binder?
**A.** The value was 102%.

**Q.** What about the “% of Normalized, TF/FVIIa/FX complex assay, Ab 100 nM” value [3] of the same binder?
**A.** Its value is 102%.

**Q.** And the “TF/FVIIa/FXa assay % of 0 nM TFPI, 12.5 nM Ab, 50 nM TFPI” value [4]?
**A.** The value was 21.2%.

**Q.** What about the “TF/FVIIa/FXa assay % of 0 nM TFPI, 50 nM Ab, 50 nM TFPI” value [4] of the same binder?
**A.** The value was 115%.

**Q.** And the “TF/FVIIa/FXa assay % of 0 nM TFPI, 100 nM Ab, 50 nM TFPI” value [4]?
**A.** The value was 113%.

**Q.** And the “TF/FVIIa/FXa assay OD, 12.5 nM Ab, 50 nM TFPI” value [4]?
**A.** The value was 0.17 OD.

**Q.** And the “TF/FVIIa/FXa assay OD, 25 nM Ab, 50 nM TFPI” value [4]?
**A.** Its value is 0.696 OD.

**Q.** And the “TF/FVIIa/FXa assay OD, 50 nM Ab, 50 nM TFPI” value [4]?
**A.** Its value is 0.924 OD.

**Q.** What about the “TF/FVIIa/FXa assay OD, 100 nM Ab, 50 nM TFPI” value [4] of the same binder?
**A.** Its value is 0.907 OD.

**Q.** What about the “FXa assay % of FXa alone, 2.5 nM Ab, 10 nM TFPI” value [5] of the same binder?
**A.** The value was 6.9%.

**Q.** And the “FXa assay % of FXa alone, 5 nM Ab, 10 nM TFPI” value [5]?
**A.** The value was 18.8%.

**Q.** And the “FXa assay % of FXa alone, 10 nM Ab, 10 nM TFPI” value [5]?
**A.** Its value is 55.2%.

**Q.** What about the “FXa assay % of FXa alone, 20 nM Ab, 10 nM TFPI” value [5] of the same binder?
**A.** Its value is 78%.

**Q.** What about the “FXa assay OD, 2.5 nM Ab, 10 nM TFPI” value [5] of the same binder?
**A.** Its value is 0.0335.

**Q.** And the “FXa assay OD, 5 nM Ab, 10 nM TFPI” value [5]?
**A.** Its value is 0.091.

**Q.** What about the “FXa assay OD, 10 nM Ab, 10 nM TFPI” value [5] of the same binder?
**A.** The value was 0.267.

**Q.** And the “FXa assay OD, 20 nM Ab, 10 nM TFPI” value [5]?
**A.** Its value is 0.378.

**Q.** What about the “FXa assay % of FXa alone, 2.5 nM Ab, 10 nM TFPI” value [6] of the same binder?
**A.** Its value is 5.5%.

**Q.** And the “FXa assay % of FXa alone, 5 nM Ab, 10 nM TFPI” value [6]?
**A.** The value was 7.1%.

**Q.** And the “FXa assay % of FXa alone, 10 nM Ab, 10 nM TFPI” value [6]?
**A.** Its value is 28.8%.

**Q.** And the “FXa assay % of FXa alone, 20 nM Ab, 10 nM TFPI” value [6]?
**A.** Its value is 54.5%.

**Q.** And the “FXa assay OD, 2.5 nM Ab, 10 nM TFPI” value [6]?
**A.** Its value is 0.048.

**Q.** And the “FXa assay OD, 5 nM Ab, 10 nM TFPI” value [6]?
**A.** The value was 0.062.

**Q.** And the “FXa assay OD, 10 nM Ab, 10 nM TFPI” value [6]?
**A.** Its value is 0.251.

**Q.** What about the “FXa assay OD, 20 nM Ab, 10 nM TFPI” value [6] of the same binder?
**A.** The value was 0.474.

**Q.** What about the “FXa assay % of FXa alone, 2.5 nM Ab, 10 nM TFPI” value [7] of the same binder?
**A.** Its value is 6.9%.

**Q.** And the “FXa assay % of FXa alone, 5 nM Ab, 10 nM TFPI” value [7]?
**A.** Its value is 20%.

**Q.** And the “FXa assay % of FXa alone, 10 nM Ab, 10 nM TFPI” value [7]?
**A.** The value was 45.4%.

**Q.** And the “FXa assay % of FXa alone, 20 nM Ab, 10 nM TFPI” value [7]?
**A.** The value was 72.9%.

**Q.** And the “FXa assay OD, 2.5 nM Ab, 10 nM TFPI” value [7]?
**A.** The value was 0.057.

**Q.** And the “FXa assay OD, 5 nM Ab, 10 nM TFPI” value [7]?
**A.** Its value is 0.165.

**Q.** And the “FXa assay OD, 10 nM Ab, 10 nM TFPI” value [7]?
**A.** The value was 0.375.

**Q.** And the “FXa assay OD, 20 nM Ab, 10 nM TFPI” value [7]?
**A.** The value was 0.603.

Reference: patent US20180030151A1 (MOGAM INSTITUTE FOR BIOMEDICAL RESEARCH, published 2018)
